In paper PMC9865026 (Pathogens, 2022):

Molecular target: A/New Caledonia/20/1999 (NC H1N1) recombinant hemagglutinin (HA) (Influenza A virus A/New …, UniProt Q6WG00, strain)
Assay: ELISA
Conditions: both partners purified

B1: FI6 human IgG1 (antibody, V domains shown)
VH: QVQLVESGGGVVQPGRSLRLSCAASGFTFSTYAMHWVRQAPGKGLEWVAVISYDANYKYYADSVKGRFTISRDNSKNTLYLQMNSLRAEDTAVYYCAKDSQLRSLLYFEWLSQGYFDYWGQGTLVTVSS
VL: not shown
notes: also called native human IgG1; source: HEK-293, transfected (pTT5), purified from cell culture supernatant (MabSelect); copies: 2 + 2
  binding result: binds
